# Tests used:
# [1] = biological target: Pregnancy zone protein in fucosidase-treated serum (human) (UniProt P20742); test: fucosidase-treated serum on M-LAC column, displacer fraction, LC-MS/MS; smaller rank = more abundant
# [2] = biological target: Pregnancy zone protein in fucosidase-treated serum (human) (UniProt P20742); test: fucosidase-treated serum on M-LAC column, displacer fraction, extracted ion chromatogram of peptide … (so in the source)
# Chain of Pregnancy zone protein in fucosidase-treated serum (human) (P20742 26-1482 limits assumed): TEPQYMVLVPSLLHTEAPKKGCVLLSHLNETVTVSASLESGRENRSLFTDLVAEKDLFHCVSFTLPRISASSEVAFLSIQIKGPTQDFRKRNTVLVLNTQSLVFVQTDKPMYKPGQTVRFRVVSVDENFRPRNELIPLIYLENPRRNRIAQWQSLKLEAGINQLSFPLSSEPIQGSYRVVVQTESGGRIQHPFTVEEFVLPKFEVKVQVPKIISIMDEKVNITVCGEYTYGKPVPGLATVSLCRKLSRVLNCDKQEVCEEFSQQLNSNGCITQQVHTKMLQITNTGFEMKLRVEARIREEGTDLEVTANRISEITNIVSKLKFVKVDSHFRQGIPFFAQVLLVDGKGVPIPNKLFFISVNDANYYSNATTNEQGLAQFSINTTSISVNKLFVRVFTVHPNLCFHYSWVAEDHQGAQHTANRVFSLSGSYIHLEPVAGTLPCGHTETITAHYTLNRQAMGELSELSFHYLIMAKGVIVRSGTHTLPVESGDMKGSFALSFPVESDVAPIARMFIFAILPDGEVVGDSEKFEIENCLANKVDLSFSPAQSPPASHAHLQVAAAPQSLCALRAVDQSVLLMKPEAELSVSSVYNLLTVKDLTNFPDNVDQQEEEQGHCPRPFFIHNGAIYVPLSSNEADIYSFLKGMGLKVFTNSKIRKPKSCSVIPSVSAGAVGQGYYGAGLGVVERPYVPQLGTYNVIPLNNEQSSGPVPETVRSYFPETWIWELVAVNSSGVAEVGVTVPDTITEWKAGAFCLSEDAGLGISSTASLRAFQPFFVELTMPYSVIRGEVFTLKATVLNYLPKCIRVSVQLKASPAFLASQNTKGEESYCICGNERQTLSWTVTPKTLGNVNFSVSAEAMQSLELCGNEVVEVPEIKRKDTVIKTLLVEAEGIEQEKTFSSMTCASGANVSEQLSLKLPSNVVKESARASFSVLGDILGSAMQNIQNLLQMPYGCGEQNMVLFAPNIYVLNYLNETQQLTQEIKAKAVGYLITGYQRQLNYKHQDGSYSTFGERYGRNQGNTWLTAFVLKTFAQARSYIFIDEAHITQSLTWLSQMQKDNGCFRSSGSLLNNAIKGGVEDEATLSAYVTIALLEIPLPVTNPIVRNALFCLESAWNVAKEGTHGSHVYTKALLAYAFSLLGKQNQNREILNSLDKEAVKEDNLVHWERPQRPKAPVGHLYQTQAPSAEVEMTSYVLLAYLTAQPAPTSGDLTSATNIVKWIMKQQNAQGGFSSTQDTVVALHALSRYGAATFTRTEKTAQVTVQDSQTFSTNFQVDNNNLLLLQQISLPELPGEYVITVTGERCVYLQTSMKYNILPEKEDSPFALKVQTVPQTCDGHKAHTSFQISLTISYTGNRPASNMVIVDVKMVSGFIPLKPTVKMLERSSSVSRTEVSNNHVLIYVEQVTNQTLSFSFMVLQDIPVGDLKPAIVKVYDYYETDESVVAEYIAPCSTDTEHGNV
binder,measurement,setting,value
"Jacalin lectin, agarose-bound (protein, immobilized on agarose) chain 1: GKAFDDGAFTGIREINLSYNKETAIGDFQVVYDLNGSPYVGQNHKSFITGFTPVKISLDFPSEYIMEVSGYTGNVSGYVVVRSLTFKTNKKTYGPYGVTSGTPFNLPIENGLIVGFKGSIGYWLDYFSMYLSL chain 2: NEQSGKSQTVIVGSWGAKVS",SEQUEST rank in displacer fraction,[1],6
same,peptide peak area in displacer fraction,[2],0 counts

# From US20090166224A1
